Test results published in PMC10598741, “Comparative analysis of the physical properties of murine and human S100A7: Insight into why zinc piracy is mediated by human but not murine S100A7” (The Journal of Biological Chemistry, 2023).

Molecular target: the molecule itself
Assay: crystal structure; Ca2+-loaded mS100A7ΔC at 12 to 14 mg/ml in 20 mM Tris pH 8.0, 100 mM NaCl, 1% glycerol, 1 mM TCEP, 2 mM CaCl2; crystals in 0.1 M potassium thiocyanate, 20% PEG MME 2K, 0.01 M strontium chloride, 20 °C; space group P212121, 1.69 Å

B1: mouse S100A7 tailless (mS100A7ΔC), deletion mutant mS100A7(1-100) (domain or fragment, UniProt Q6S5I3 1-100, looked up)
chain: MPDTPVEDSLFQIIHCFHHYAAREGDKETLSLEELKALLLDSVPRFMDTLGRRQPYYITELFRAADKNKDNQICFDEFLYILGKLVKDYHLQFHRQLCAH
notes: mouse S100A7 (S100A15a), UniProt Q6S5I3, residues 1-100: truncated at His100, lacks the last eight residues of the C-terminal tail; Gene synthesised and subcloned in pET11a (NdeI/BamHI); no tag is mentioned; Crystallised Ca2+-loaded; residues R95-H100 are poorly defined in the structure; also called murine S100A7ΔC; S100A15a; source: E. coli BL21 RIL, purified (supernatant heated to 85 °C, DEAE …)
B1: binds.
